Assay results taken from publication PMC7954794 (2021).

B1: S. cerevisiae Abp1 (full length; SH3 domain 535-592 mutated) / Hua2 (parent complex)
chain 1: MALEPIDYTTHSREIDAEYLKIVRGSDPDTTWLIISPNAKKEYEPESTGSSFHDFLQLFDETKVQYGLARVSPPGSDVEKIIIIGWCPDSAPLKTRASFAANFAAVANNLFKGYHVQVTARDEDDLDENELLMKISNAAGARYSIQTSSKQQGKASTPPVKKSFTPSKSPAPVSKKEPVKTPSPAPAAKISSRVNDNNDDDDWNEPELKERDFDQAPLKPNQSSYKPIGKIDLQKVIAEEKAKEDPRLVQKPTAAGSKIDPSSDIANLKNESKLKRDSEFNSFLGTTKPPSMTESSLKNDDDKVIKGFRNEKSPAQLWAERKAKQNSGNAETKAEAPKPEVPEDEPEGEPDVKDLKSKFEGLAASEKEEEEMENKFAPPPKKSEPTIISPKPFSKPQEPVKAEEAEQPKTDYKKIGNPLPGMHIEADNEEEPEENDDDWDDDEDEAAQPPLPSRNVASGAPVQKEEPEQEEIAPSLPSRNSIPAPKQEEAPEQAPEEEIEEEAEEAAPQLPSRSSAAPPPPPRRATPEKKPKENPWATAEYDYDAAEDNELTFVENDKIINIEFVDDDWWLGELEKDGSKGLFPSNYVSLGN
chain 2: MQQTKFGKMYLDHDSVVEYSEDEIVEADRITLGYKKRLSMIENQMRHLLEDFSLDVQQIEPILADLQKYYDAFLQLLQKRNKSLQCKRSTHQPVPSPMNSQTSTNAKVNLSGKLMKFQLNSVQKFDEENILRILQNKIEFEHYFQIDKGKKQKVLLLAVYQCLNGPTRLHKVLNIEGIIHNNSIRTILGKQVSSSKWTVFLYDVKLVLLAHRQDVPNLETSKMIVRYGDLFPCALYFKDHTAY

Variants of: B1
Test: DHFR protein-fragment complementation in yeast (Abp1-DHFR F[1,2] x partner-DHFR F[3]), deep mutational scanning, second methotrexate selection vs reference; S. cerevisiae, DHFR-PCA selection in liquid with methotrexate at 30 C, two 72 h selections (the score uses the second); reference = the pre-selection culture

Point of comparison: chain 1 MALEPIDYTTHSREIDAEYLKIVRGSDPDTTWLIISPNAKKEYEPESTGSSFHDFLQLFDETKVQYGLARVSPPGSDVEKIIIIGWCPDSAPLKTRASFAANFAAVANNLFKGYHVQVTARDEDDLDENELLMKISNAAGARYSIQTSSKQQGKASTPPVKKSFTPSKSPAPVSKKEPVKTPSPAPAAKISSRVNDNNDDDDWNEPELKERDFDQAPLKPNQSSYKPIGKIDLQKVIAEEKAKEDPRLVQKPTAAGSKIDPSSDIANLKNESKLKRDSEFNSFLGTTKPPSMTESSLKNDDDKVIKGFRNEKSPAQLWAERKAKQNSGNAETKAEAPKPEVPEDEPEGEPDVKDLKSKFEGLAASEKEEEEMENKFAPPPKKSEPTIISPKPFSKPQEPVKAEEAEQPKTDYKKIGNPLPGMHIEADNEEEPEENDDDWDDDEDEAAQPPLPSRNVASGAPVQKEEPEQEEIAPSLPSRNSIPAPKQEEAPEQAPEEEIEEEAEEAAPQLPSRSSAAPPPPPRRATPEKKPKENQWATAEYDYDAAEDNELTFVENDKIINIEFVDDDWWLGELEKDGSKGLFPSNYVSLGN [chain 1 P535Q], screen value 1.11 DMS score: mean over two replicates of log2(f_test/f_ref + 0.5)/ln 2, minus the synonymous-codon median (not a log2 …. Against it:
- chain 1 MALEPIDYTTHSREIDAEYLKIVRGSDPDTTWLIISPNAKKEYEPESTGSSFHDFLQLFDETKVQYGLARVSPPGSDVEKIIIIGWCPDSAPLKTRASFAANFAAVANNLFKGYHVQVTARDEDDLDENELLMKISNAAGARYSIQTSSKQQGKASTPPVKKSFTPSKSPAPVSKKEPVKTPSPAPAAKISSRVNDNNDDDDWNEPELKERDFDQAPLKPNQSSYKPIGKIDLQKVIAEEKAKEDPRLVQKPTAAGSKIDPSSDIANLKNESKLKRDSEFNSFLGTTKPPSMTESSLKNDDDKVIKGFRNEKSPAQLWAERKAKQNSGNAETKAEAPKPEVPEDEPEGEPDVKDLKSKFEGLAASEKEEEEMENKFAPPPKKSEPTIISPKPFSKPQEPVKAEEAEQPKTDYKKIGNPLPGMHIEADNEEEPEENDDDWDDDEDEAAQPPLPSRNVASGAPVQKEEPEQEEIAPSLPSRNSIPAPKQEEAPEQAPEEEIEEEAEEAAPQLPSRSSAAPPPPPRRATPEKKPKENPWATAEYDYDAAEDNELTFVENDKIINIEFVDDDWWLGELEKDRSKGLFPSNYVSLGN [chain 1 G578R] — lower, -0.535 DMS score: mean over two replicates of log2(f_test/f_ref + 0.5)/ln 2, minus the synonymous-codon median (not a log2 …
- chain 1 MALEPIDYTTHSREIDAEYLKIVRGSDPDTTWLIISPNAKKEYEPESTGSSFHDFLQLFDETKVQYGLARVSPPGSDVEKIIIIGWCPDSAPLKTRASFAANFAAVANNLFKGYHVQVTARDEDDLDENELLMKISNAAGARYSIQTSSKQQGKASTPPVKKSFTPSKSPAPVSKKEPVKTPSPAPAAKISSRVNDNNDDDDWNEPELKERDFDQAPLKPNQSSYKPIGKIDLQKVIAEEKAKEDPRLVQKPTAAGSKIDPSSDIANLKNESKLKRDSEFNSFLGTTKPPSMTESSLKNDDDKVIKGFRNEKSPAQLWAERKAKQNSGNAETKAEAPKPEVPEDEPEGEPDVKDLKSKFEGLAASEKEEEEMENKFAPPPKKSEPTIISPKPFSKPQEPVKAEEAEQPKTDYKKIGNPLPGMHIEADNEEEPEENDDDWDDDEDEAAQPPLPSRNVASGAPVQKEEPEQEEIAPSLPSRNSIPAPKQEEAPEQAPEEEIEEEAEEAAPQLPSRSSAAPPPPPRRATPEKKPKENPWATAEYDYDQAEDNELTFVENDKIINIEFVDDDWWLGELEKDGSKGLFPSNYVSLGN [chain 1 A545Q] — lower, 0.22 DMS score: mean over two replicates of log2(f_test/f_ref + 0.5)/ln 2, minus the synonymous-codon median (not a log2 …
- chain 1 MALEPIDYTTHSREIDAEYLKIVRGSDPDTTWLIISPNAKKEYEPESTGSSFHDFLQLFDETKVQYGLARVSPPGSDVEKIIIIGWCPDSAPLKTRASFAANFAAVANNLFKGYHVQVTARDEDDLDENELLMKISNAAGARYSIQTSSKQQGKASTPPVKKSFTPSKSPAPVSKKEPVKTPSPAPAAKISSRVNDNNDDDDWNEPELKERDFDQAPLKPNQSSYKPIGKIDLQKVIAEEKAKEDPRLVQKPTAAGSKIDPSSDIANLKNESKLKRDSEFNSFLGTTKPPSMTESSLKNDDDKVIKGFRNEKSPAQLWAERKAKQNSGNAETKAEAPKPEVPEDEPEGEPDVKDLKSKFEGLAASEKEEEEMENKFAPPPKKSEPTIISPKPFSKPQEPVKAEEAEQPKTDYKKIGNPLPGMHIEADNEEEPEENDDDWDDDEDEAAQPPLPSRNVASGAPVQKEEPEQEEIAPSLPSRNSIPAPKQEEAPEQAPEEEIEEEAEEAAPQLPSRSSAAPPPPPRRATPEKKPKENPWATAEYDYDAAEANELTFVENDKIINIEFVDDDWWLGELEKDGSKGLFPSNYVSLGN [chain 1 D548A] — lower, 0.159 DMS score: mean over two replicates of log2(f_test/f_ref + 0.5)/ln 2, minus the synonymous-codon median (not a log2 …
- chain 1 MALEPIDYTTHSREIDAEYLKIVRGSDPDTTWLIISPNAKKEYEPESTGSSFHDFLQLFDETKVQYGLARVSPPGSDVEKIIIIGWCPDSAPLKTRASFAANFAAVANNLFKGYHVQVTARDEDDLDENELLMKISNAAGARYSIQTSSKQQGKASTPPVKKSFTPSKSPAPVSKKEPVKTPSPAPAAKISSRVNDNNDDDDWNEPELKERDFDQAPLKPNQSSYKPIGKIDLQKVIAEEKAKEDPRLVQKPTAAGSKIDPSSDIANLKNESKLKRDSEFNSFLGTTKPPSMTESSLKNDDDKVIKGFRNEKSPAQLWAERKAKQNSGNAETKAEAPKPEVPEDEPEGEPDVKDLKSKFEGLAASEKEEEEMENKFAPPPKKSEPTIISPKPFSKPQEPVKAEEAEQPKTDYKKIGNPLPGMHIEADNEEEPEENDDDWDDDEDEAAQPPLPSRNVASGAPVQKEEPEQEEIAPSLPSRNSIPAPKQEEAPEQAPEEEIEEEAEEAAPQLPSRSSAAPPPPPRRATPEKKPKENPWATAEYDYDAAEDNELTFVENDKIINIEFWDDDWWLGELEKDGSKGLFPSNYVSLGN [chain 1 V565W] — lower, 0.964 DMS score: mean over two replicates of log2(f_test/f_ref + 0.5)/ln 2, minus the synonymous-codon median (not a log2 …
